This note sets out measurements from patent US20210371517A1.

Read-outs that look alike come from different tables or passages of the source.

Common to all, as to assay: cell-based or functional assay
Test [1] has as its target CD171 (L1CAM) (human) (UniProt P32004).
The target is the same in test [2]. This is another data set of the same source.
The target of test [3] is Fas (CD95) (human) (UniProt P25445).
Sequence of UniProt P25445 (P25445 26-335): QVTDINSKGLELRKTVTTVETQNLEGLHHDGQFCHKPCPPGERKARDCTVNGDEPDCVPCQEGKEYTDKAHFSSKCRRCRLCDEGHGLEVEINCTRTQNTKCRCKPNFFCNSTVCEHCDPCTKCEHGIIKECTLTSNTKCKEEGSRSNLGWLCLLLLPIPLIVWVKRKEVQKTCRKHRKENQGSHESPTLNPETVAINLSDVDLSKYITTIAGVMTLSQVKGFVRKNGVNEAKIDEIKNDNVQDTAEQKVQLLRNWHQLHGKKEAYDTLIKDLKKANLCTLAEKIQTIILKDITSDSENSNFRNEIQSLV

Sequence of UniProt P32004 (P32004 20-1257): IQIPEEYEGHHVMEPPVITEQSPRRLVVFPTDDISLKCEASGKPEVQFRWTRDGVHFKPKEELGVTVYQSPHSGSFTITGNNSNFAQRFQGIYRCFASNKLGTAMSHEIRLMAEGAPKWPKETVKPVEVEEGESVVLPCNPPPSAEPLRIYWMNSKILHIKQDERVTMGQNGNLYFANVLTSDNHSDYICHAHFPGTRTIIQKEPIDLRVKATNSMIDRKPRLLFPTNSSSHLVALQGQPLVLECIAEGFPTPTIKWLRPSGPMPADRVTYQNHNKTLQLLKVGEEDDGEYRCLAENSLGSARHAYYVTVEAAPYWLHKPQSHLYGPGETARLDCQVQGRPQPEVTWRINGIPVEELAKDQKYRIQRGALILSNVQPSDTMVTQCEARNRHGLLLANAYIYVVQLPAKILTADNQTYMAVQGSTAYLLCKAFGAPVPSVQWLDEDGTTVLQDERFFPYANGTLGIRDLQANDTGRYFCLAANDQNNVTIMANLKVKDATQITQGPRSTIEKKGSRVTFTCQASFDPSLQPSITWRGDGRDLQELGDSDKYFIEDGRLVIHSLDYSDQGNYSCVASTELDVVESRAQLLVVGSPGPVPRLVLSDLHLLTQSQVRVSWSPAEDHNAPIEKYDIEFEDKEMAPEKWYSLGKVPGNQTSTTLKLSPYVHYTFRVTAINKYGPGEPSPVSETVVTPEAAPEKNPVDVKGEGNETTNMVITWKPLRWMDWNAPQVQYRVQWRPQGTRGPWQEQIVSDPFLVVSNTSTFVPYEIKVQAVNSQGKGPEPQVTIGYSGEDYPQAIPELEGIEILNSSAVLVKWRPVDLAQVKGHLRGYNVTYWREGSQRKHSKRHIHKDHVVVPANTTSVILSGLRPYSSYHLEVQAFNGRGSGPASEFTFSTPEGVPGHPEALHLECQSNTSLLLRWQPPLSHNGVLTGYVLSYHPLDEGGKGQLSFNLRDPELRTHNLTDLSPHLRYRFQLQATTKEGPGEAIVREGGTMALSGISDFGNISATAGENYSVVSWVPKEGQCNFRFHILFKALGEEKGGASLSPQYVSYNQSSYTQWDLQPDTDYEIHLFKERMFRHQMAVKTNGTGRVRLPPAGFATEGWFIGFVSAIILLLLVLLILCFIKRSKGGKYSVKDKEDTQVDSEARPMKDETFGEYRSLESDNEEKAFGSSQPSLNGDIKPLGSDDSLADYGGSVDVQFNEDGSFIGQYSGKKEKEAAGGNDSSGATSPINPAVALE
Sequence of CE7scFv-IgG4hinge-CD28tm/cyto-4-1BB-zeta (short) CD171-specific chimeric receptor with two costimulatory domains (main): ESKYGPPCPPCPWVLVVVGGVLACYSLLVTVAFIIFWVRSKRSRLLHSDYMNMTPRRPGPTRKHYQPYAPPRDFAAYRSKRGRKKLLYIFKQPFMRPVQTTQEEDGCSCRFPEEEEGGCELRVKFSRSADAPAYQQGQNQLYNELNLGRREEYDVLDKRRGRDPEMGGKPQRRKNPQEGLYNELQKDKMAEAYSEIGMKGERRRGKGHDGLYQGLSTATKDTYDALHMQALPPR

In test [1], “CE7scFv-IgG4hinge-CD28tm/4-1BB-zeta (short) CD171-specific chimeric receptor” yielded a % CD25+CD69+ T cells after round III of tumor cell co-culture of 40%; a % CD25+CD69+ T cells, stress test round I with Be2 cells of 46.8%; a % CD25+CD69+ T cells, stress test round II with Be2 cells of 47.6%; a % CD25+CD69+ T cells, stress test round III with Be2 cells of 42.1%. In test [2], this substance came in with a % CD25+CD69+ T cells after round III of tumor cell co-culture of 42%.
Turning to “Fas ligand (FasL, CD178) (from UniProt P48023 1-281)”, in test [3], the T cell viability of 2G-CAR(LS) CTLs after round III following siRNA knockdown of Fas, fold increase amounted to 1.4 fold and the T cell viability of 2G-CAR(LS) CTLs after round III following siRNA knockdown of FasL, fold increase is 1.6 fold.
Turning to “CE7scFv-IgG4hinge-CD28tm/cyto-4-1BB-zeta (short) CD171-specific chimeric receptor with two costimulatory domains”, in test [1], the % CD25+CD69+ T cells after round III of tumor cell co-culture was found to be 60%; the IL-2 secretion in Be2 co-culture, fold over 2G-CAR(SS) was determined as 5.1 fold; the TNF-α secretion in Be2 co-culture, fold over 2G-CAR(SS) was 2.5 fold; the cytolytic activity against Be2 targets, fold over 2G-CAR(SS) worked out at 1.3 fold. For the same substance, in test [1], the induction of CD137 expression upon tumor contact, fold over 2G-CAR(SS) was found to be 8.4 fold.
In test [1], “Ce7scFv-IgG4hinge-CH2-CH3-CD28tm/4-1BB-zeta (long construct) CD171-specific chimeric receptor” displayed a % CD25+CD69+ T cells, stress test round I with Be2 cells of 79.4%; a % CD25+CD69+ T cells, stress test round II with Be2 cells of 74%; a % CD25+CD69+ T cells, stress test round III with Be2 cells of 65.7%; an IFN-γ secretion in Be2 co-culture, fold over 2G-CAR(SS) of 8.4 fold. Besides, in test [1], the IL-2 secretion in Be2 co-culture, fold over 2G-CAR(SS) was 6.3 fold; the TNF-α secretion in Be2 co-culture, fold over 2G-CAR(SS) was determined as 6.1 fold; the percentage of cells expressing activation marker CD137, fold over CD171-CAR(SS) was 5.7 fold; the phospho-ERK level after co-culture with CD171+ Be2 cells, fold over CD171-CAR(SS) is 3.1 fold. Moreover, the % CD25+CD69+ T cells after round III of tumor cell co-culture in test [2] turned out to be 66%.
